These results are taken from paper PMC9371921, “Strand annealing and motor driven activities of SMARCAL1 and ZRANB3 are stimulated by RAD51 and the paralog complex” (Nucleic Acids Research, 2022).

For experiment [1], the target named is T1, SMARCAL1 F439 F→A variant (human, UniProt Q9NZC9 1-954, F439 (F→A variant)).
T1 construct: human SMARCAL1 with F439 disrupted; the methods call the variants SMARCAL1 F→A variants; construct as m1; The text says only 'disruption of F439'; also called disruption of F439; source: Sf9, purified similarly as the wild type
T1 sequence (looked up): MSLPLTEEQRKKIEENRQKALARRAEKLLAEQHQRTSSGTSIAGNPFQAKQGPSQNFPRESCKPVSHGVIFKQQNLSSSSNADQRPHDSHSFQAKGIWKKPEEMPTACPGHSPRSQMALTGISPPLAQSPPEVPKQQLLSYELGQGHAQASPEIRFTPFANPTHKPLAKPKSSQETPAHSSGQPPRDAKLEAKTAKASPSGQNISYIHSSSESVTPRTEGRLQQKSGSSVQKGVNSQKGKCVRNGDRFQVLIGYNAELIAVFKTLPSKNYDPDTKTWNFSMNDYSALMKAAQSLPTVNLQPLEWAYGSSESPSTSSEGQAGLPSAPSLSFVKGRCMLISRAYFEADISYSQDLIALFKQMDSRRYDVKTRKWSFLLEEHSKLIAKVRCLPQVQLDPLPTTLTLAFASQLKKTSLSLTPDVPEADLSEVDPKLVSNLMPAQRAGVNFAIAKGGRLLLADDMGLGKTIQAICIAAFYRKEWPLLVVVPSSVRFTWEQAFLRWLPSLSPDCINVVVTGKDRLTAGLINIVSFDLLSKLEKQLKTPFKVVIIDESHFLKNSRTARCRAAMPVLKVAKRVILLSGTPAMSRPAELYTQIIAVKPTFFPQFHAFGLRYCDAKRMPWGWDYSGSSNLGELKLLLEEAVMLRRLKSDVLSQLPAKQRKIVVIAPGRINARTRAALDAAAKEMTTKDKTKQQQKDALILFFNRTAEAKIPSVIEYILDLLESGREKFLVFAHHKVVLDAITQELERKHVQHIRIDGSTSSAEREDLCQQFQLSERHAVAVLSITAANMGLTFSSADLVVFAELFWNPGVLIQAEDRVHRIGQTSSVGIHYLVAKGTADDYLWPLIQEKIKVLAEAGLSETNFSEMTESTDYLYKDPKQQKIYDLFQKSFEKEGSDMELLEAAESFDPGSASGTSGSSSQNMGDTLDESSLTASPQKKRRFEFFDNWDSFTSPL
Briefly: pull-down; MBP-RAD51 (bait) from bacterial soluble extract bound to amylose resin and washed; purified FLAG-SMARCAL1, FLAG-ZRANB3 or FLAG-BCDX2 (1 μg, prey) in 150 μl IP buffer (25 mM Tris-HCl pH 7.5, 100 mM NaCl, 3 mM EDTA, 0.5 mM DTT, BSA, 10% glycerol), 1 h at 4°C; eluted with maltose; Western blot with anti-MBP and anti-FLAG. Particulars: both partners purified. (In general: A western blot detects proteins with antibodies after separation by electrophoresis.)

The target in the next experiment is T2, ZRANB3 F47A (human, UniProt Q5FWF4 1-1079, F47A).
T2 construct: human ZRANB3 with F47A; construct as m2; also called F47A substitution mutant; source: Sf9, expressed and purified similarly as the wild type
T2 sequence (looked up): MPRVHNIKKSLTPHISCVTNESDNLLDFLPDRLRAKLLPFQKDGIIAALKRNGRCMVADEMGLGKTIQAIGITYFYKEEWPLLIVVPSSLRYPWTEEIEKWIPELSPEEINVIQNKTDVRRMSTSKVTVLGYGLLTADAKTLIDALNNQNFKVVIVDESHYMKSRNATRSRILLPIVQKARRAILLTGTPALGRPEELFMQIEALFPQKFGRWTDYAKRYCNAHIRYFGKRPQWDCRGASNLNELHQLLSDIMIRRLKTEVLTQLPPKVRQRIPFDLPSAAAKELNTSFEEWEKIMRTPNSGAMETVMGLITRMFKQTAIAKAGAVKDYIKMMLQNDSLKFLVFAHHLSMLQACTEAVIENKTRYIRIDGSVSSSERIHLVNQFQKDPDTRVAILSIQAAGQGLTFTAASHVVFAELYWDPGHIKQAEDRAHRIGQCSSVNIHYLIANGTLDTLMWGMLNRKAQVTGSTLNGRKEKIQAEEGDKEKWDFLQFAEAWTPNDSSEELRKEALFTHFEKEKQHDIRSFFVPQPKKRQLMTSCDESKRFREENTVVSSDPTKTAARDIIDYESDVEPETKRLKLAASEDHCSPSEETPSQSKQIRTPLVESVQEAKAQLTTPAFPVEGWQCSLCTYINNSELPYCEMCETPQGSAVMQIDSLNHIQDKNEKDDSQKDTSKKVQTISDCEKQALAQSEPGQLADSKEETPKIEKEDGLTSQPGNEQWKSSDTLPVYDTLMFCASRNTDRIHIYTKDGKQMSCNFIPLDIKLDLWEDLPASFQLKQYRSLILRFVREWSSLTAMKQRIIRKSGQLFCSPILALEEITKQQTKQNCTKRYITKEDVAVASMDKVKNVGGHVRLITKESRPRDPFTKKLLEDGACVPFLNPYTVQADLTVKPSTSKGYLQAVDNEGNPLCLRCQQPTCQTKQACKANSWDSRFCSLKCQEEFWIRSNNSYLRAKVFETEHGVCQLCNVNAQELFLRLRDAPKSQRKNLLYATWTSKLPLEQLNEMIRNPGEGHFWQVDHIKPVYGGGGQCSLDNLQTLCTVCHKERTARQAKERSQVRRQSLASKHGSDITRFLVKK
In words: pull-down; ZRANB3 F→A variants and RAD51 (Supplementary Figure S4); the methods tell two set-ups (MBP-RAD51 on amylose resin with purified FLAG-ZRANB3; FLAG-ZRANB3 variants from Sf9 soluble extract on anti-FLAG resin with purified RAD51) and the text does not tell which was used for which variant; 100 mM NaCl, 1 h at 4°C. Particulars: both partners purified.

B1: MBP-RAD51 (natural protein, human, UniProt Q06609 1-339, looked up)
chain: MAMQMQLEANADTSVEEESFGPQPISRLEQCGINANDVKKLEEAGFHTVEAVAYAPKKELINIKGISEAKADKILAEAAKLVPMGFTTATEFHQRRSEIIQITTGSKELDKLLQGGIETGSITEMFGEFRTGKTQICHTLAVTCQLPIDRGGGEGKAMYIDTEGTFRPERLLAVAERYGLSGSDVLDNVAYARAFNTDHQTQLLYQASAMMVESRYALLIVDSATALYRTDYSGRGELSARQMHLARFLRMLLRLADEFGVAVVITNQVVAQVDGAAMFAADPKKPIGGNIIAHASTTRLYLRKGRGETRICKIYDSPCLPEAEAMFAINADGVGDAKD
notes: In the pull-downs the MBP tag was kept; the RAD51 of the DNA annealing assays was the same construct with the MBP cut off by PreScission protease and purified on HiTrap Q; not shown: MBP, N-terminal, kept
As to B1, the binding result (in experiment [1]; with ZRANB3 F47A) was “binds” in each case.
